Results reported in publication PMC9054839.

Tests used:
[1] = target: kindlin-2 (endogenous, fibroblasts) [mouse (endogenous in talin^1/2dko fibroblasts)]; test: anti-GFP immunoprecipitation, western blot quantification; details: talin1/2dKO fibroblasts, N = 3; parent: 1; read off a plot
[2] = target: constitutively activated full-length talin mutant tlnM3 (M319A, T1767L, E1770K) (mouse) (UniProt P26039); test: SPR; tlnM3 amine-coupled to CM5, tlnM3 flowed over; 150 mM salt, pH 6.8, 25 °C; intermolecular tlnM3/tlnM3 interaction (dimerization)
[3] = target: GST-integrin beta3 cytoplasmic tail (UniProt P05106); test: SPR; GST-integrin beta3CT amine-coupled to CM5, talinH or tlnM3 (0–125 nM) flowed over; 50 mM sodium phosphate pH 6.8, 150 mM NaCl, 0.05% Tween 20, 0.03% BSA, 25 °C
GST-integrin beta3 cytoplasmic tail, sequence (P05106 742-788): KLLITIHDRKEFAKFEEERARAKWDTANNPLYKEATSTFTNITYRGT

[4] = target: paxillin 1–160 (human) (UniProt P49023); test: SPR; paxillin 1–160 amine-coupled to CM5, talin subdomains (0–12 μM) flowed over; 50 mM sodium phosphate pH 6.8, 150 mM NaCl, 25 °C; talin-R1–R4 fitted by a two-state model
paxillin 1–160 (human), sequence (P49023 1-160): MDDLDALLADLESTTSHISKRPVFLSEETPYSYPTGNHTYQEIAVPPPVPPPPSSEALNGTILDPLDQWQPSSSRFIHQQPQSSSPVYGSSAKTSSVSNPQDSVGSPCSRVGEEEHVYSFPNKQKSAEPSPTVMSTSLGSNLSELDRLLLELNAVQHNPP

Substance “C-terminally ypet-tagged full-length talin WT mutant A680E; K687E [mouse] / kindlin-2 (endogenous, fibroblasts) [mouse (endogenous in talin^1/2dko fibroblasts)] chain 1 A680E, chain 1 K687E” has a ratio to parent [1] of 0.49.
Work on “C-terminally ypet-tagged full-length talin WT mutant A680E; K687E; T2126E; K2133E [mouse] / kindlin-2 (endogenous, fibroblasts) [mouse (endogenous in talin^1/2dko fibroblasts)] chain 1 A680E, chain 1 K687E, chain 1 T2126E, chain 1 K2133E” yielded a ratio to parent [1] of 0.31.
In the case of “C-terminally ypet-tagged full-length talin WT mutant T2126E; K2133E [mouse] / kindlin-2 (endogenous, fibroblasts) [mouse (endogenous in talin^1/2dko fibroblasts)] chain 1 T2126E, chain 1 K2133E”, the ratio to parent [1] is reported as 0.81.
Substance “constitutively activated full-length talin mutant tlnM3 (M319A, T1767L, E1770K), P26039 1-2541” has a Kd [2] of 1820 nM.
Work on “talin N-terminal head domain (talin-H) (domain or fragment)” yielded a Kd [3] of 29.7 nM.
“talin deletion mutant without C-terminal dimerization domain (from UniProt P26039 1-2482) (domain or fragment)” was tested, and the Kd [3] was 36 nM.
talin-R1–R4 (domain or fragment) gave a Kd [4] of 0.153 µM and a stoichiometry N [4] of 1.
Substance talin-R11 (domain or fragment) has a Kd [4] of 12.7 µM.
